B1: RuBisCO large subunit RbcL from Anabaena sp. PCC 7120 (His-RbcL) (natural protein, UniProt P00879 1-476, looked up)
chain: MSYAQTKTQTKSGYKAGVQDYRLTYYTPDYTPKDTDILAAFRVTPQPGVPFEEAAAAVAAESSTGTWTTVWTDLLTDLDRYKGRCYDIEPVPGEDNQFIAYIAYPLDLFEEGSITNVLTSIVGNVFGFKALRALRLEDIRFPVAYIKTFQGPPHGIQVERDKLNKYGRPLLGCTIKPKLGLSAKNYGRAVYECLRGGLDFTKDDENINSAPFQRWRDRFLFVADAITKAQAETGEIKGHYLNVTAPTCEEMLKRAEYAKELKQPIIMHDYLTAGFTANTTLARWCRDNGVLLHIHRAMHAVIDRQKNHGIHFRVLAKALRLSGGDHIHTGTVVGKLEGERGITMGFVDLLRENYVEQDKSRGIYFTQDWASLPGVMAVASGGIHVWHMPALVEIFGDDSVLQFGGGTLGHPWGNAPGATANRVALEACVQARNEGRNLAREGNDVIREAAKWSPELAVACELWKEIKFEFEAMDTV
notes: RbcL, ribulose-1,5-bisphosphate carboxylase/oxygenase large subunit, Anabaena sp; coding region amplified from genomic DNA; plasmid pET19-His-RbcL; also called RbcL8 core; source: E. coli BL21 (DE3), co-expressed with GroEL-GroES and chaperones, purified (Ni-NTA, gel filtration); also in lysate (holoenzyme co-purification)
B2: RbcX from Anabaena sp. PCC 7120, co-expressed in the ternary complex (natural protein)
chain: MNLKQIAKDTAKTLQSYLTYQALMTVLAQLGETNPPLALWLHTFSVGKVQDGEAYVKELFREQPDLALRIMTVREHIAEEVAEFLPEMVRSGIQQANMEQRRQHLERMTHLSLSNPSPESEQQTISDTDWDH
notes: RbcX, RuBisCO chaperone, Anabaena sp; coding region amplified from genomic DNA; plasmid pCDFduet-GroEL-GroES-RbcX-Raf1; No tag is named for this RbcX in the plasmid name; also called RbcX2 (dimer); source: E. coli BL21 (DE3), co-expressed with His-RbcL, Raf1 and GroEL-GroES, co-purified (Ni-NTA, gel filtration)
B3: Recombinant Anabaena sp. PCC 7120 Flag-RbcS (RuBisCO small subunit) (natural protein, UniProt P06514 1-109, looked up)
chain: MQTLPKERRYETLSYLPPLTDVQIEKQVQYILSQGYIPAVEFNEVSEPTELYWTLWKLPLFGAKTSREVLAEVQSCRSQYPGHYIRVVGFDNIKQCQILSFIVHKPSRY
notes: RbcS, RuBisCO small subunit, Anabaena sp; coding region amplified from genomic DNA; plasmid pET19-Flag-RbcS; A His-RbcS was also made (pET19-His-RbcS); the assembly-assay methods name Flag-RbcS; source: E. coli BL21 (DE3), purified (anti-FLAG M2 gel, Superdex 75); also in lysate (holoenzyme co-purification)

What was measured:
[1] = molecular target: the molecule itself; assay: cryo-EM structure; RbcL–Raf1–RbcX ternary complex co-expressed in E. coli with GroEL-GroES, purified by Ni-NTA and gel filtration in 50 mM Tris-HCl pH 8.0, 20 mM NaCl, 5 mM MgCl2; ~2 mg/mL; D4 symmetry; 3.3 Å
[2] = molecular target: T1, Anabaena sp. PCC 7120 RbcL-Raf1 complex (RbcL8Raf1_(8)) (Anabaena sp. PCC 7120, UniProt P00879 1-476; Q8YLP6 1-361); assay: native gel or EMSA; RuBisCO assembly assays: 0.5 µM L8F8 or L8F8X16 mixed with Flag-RbcS (0-10-fold to RbcL), with or without pre-incubation with 8 µM RbcX or RbcX^E32A&R69A or RbcX2 at 0-1 fold to RbcL; 25 °C, 20 mM Tris-HCl pH 8.0, 300 mM NaCl, 5 mM MgCl2, 5% glycerol; ~0.5 h; 6% native-PAGE, bands analysed by SDS-PAGE; details: both partners purified
T1 construct: RbcL, Anabaena sp; as m1; plasmid pET19-His-RbcL–Raf1; Raf1, Anabaena sp; as m2; The preparation holds L8F8 and a fraction of L2F2 on native-PAGE; also called L8F8; L2F2 (smaller form in the same preparation); copies: 8 + 8
T1 sequence (Q8YLP6 whole entry, one chain of several): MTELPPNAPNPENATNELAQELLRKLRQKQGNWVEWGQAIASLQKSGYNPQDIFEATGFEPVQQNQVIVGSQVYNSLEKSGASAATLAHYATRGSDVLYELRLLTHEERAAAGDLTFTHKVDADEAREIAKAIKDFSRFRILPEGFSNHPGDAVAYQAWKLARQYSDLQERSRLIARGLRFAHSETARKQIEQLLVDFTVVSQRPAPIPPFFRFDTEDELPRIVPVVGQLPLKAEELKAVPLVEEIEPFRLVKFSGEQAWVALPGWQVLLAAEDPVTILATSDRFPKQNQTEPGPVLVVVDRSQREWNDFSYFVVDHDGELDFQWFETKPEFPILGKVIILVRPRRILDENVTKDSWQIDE

Binder | stoichiometry N [1] | binding result [2]
B1 | 8 | –
B2 | 2 | –
B3 | – | binds

— article PMC9485235, “Structural insights into cyanobacterial RuBisCO assembly coordinated by two chaperones Raf1 and RbcX” (Cell Discovery, 2022)
